Like-named read-outs stand apart in the source and are kept apart here. Blank lines part the entries; values can stand above or below the binder they belong to.
Legend:
[1] = biological target: T1, human CD3 on the cell surface (Jurkat cells, expanded human T cells, Jurkat-Lucia NFAT cells, human PBMC) (human, UniProt P07766 23-207; P04234 22-171; P09693 23-182); test: FACS, Jurkat cells
T1 construct: whole, on cells; Endogenous CD3 within the TCR-CD3 complex on cells (also zeta chains and TCR); the cell type is named under assay
T1 sequence (P07766 23-207, chain 1 of 3): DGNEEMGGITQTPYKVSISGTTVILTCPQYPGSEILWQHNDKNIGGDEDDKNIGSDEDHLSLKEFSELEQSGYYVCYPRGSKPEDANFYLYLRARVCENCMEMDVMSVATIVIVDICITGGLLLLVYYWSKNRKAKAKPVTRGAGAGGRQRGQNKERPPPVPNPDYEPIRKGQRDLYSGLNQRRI
T1 sequence (P04234 22-171, chain 2 of 3): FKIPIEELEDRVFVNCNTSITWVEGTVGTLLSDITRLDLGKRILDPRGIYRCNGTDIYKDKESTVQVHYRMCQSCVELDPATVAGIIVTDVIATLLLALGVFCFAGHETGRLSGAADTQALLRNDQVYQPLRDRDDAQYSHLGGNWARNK
T1 sequence (P09693 23-182, chain 3 of 3): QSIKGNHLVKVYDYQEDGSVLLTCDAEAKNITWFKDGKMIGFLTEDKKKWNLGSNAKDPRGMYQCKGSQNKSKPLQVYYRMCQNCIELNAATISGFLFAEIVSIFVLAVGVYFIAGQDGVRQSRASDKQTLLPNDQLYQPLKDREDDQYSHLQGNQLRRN
Procedure: (§1) The binding of the chimeric antibodies to CD3 on the cell surface was analyzed by detecting the binding of the antibodies to Jurkat cells and human T cells. Suspension cells Jurkat cells were scale-up cultured in T-75 cell culture flasks to the logarithmic growth phase, the supernatant of the medium was discarded by centrifugation, and the cell pellet was washed 2 times with PBS for later use. The expanded human T cells were washed 2 times with PBS for later use. After counting the cells in the previous step, the cell pellet was resuspended with [PBS+2% (w/w) BSA] blocking solution to 4×10⁶ cells/ml, and added to a 96-well FACS reaction plate at 50 μl/well, and then the chimeric antibody to be tested was added at 50 μl/well, and incubated at 4° C. for 1 h. The cells were centrifuged and washed 3 times with a PBS buffer. […] The cells were centrifuged and washed 5 times with PBS, and FACS (FACS Canto™, purchased from BD Company) was used for detection and result analysis. Data analysis was performed by software (CellQuest) to obtain the mean fluorescence […] (MFI) of the cells. And then software (GraphPad Prism8) was used for analysis, data fitting, and EC50 value calculation. The same method was used to simultaneously detect the binding of the chimeric antibodies to endogenous CD3 negative cells MOLT4 cells.

[2] = biological target: T2, cynomolgus monkey CD3 on the surface of expanded monkey T cells (cynomolgus monkey, UniProt Q95LI5 22-198; Q95LI8 22-171; Q95LI7 23-181); test: FACS, expanded monkey T cells
T2 construct: whole, on cells; Endogenous CD3 within the TCR-CD3 complex on T cells expanded from cynomolgus monkey PBMC
T2 sequence (Q95LI5 22-198, chain 1 of 3): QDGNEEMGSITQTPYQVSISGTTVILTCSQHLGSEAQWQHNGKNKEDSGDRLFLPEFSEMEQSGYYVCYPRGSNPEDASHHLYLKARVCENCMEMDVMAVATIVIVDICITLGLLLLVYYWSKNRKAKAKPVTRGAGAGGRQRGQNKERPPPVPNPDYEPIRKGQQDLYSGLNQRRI
T2 sequence (Q95LI8 22-171, chain 2 of 3): as the sequence (P04234 22-171, chain 2 of 3) above, with I5V, N15K, I20V, S32T, D33N, I34N, T64A, S74N, V83L, H141R counted along it
T2 sequence (Q95LI7 23-181, chain 3 of 3): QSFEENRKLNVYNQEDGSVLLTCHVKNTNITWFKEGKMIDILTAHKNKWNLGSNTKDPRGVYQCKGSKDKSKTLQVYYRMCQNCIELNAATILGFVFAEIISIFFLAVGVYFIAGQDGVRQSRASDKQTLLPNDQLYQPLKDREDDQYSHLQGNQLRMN

[3] = biological target: T2, cynomolgus monkey CD3 on the surface of …; test: FACS, expanded monkey T cells; remark: listed apart in the source
Procedure: as §1
FACS detection and data analysis were performed on the cryopreserved monkey T cells of Example 2.4 according to the method in Example 5.1.

[4] = biological target: T1, human CD3 on the cell surface (Jurkat …); test: FACS, Jurkat cells; remark: listed apart in the source
Procedure: Suspension cells Jurkat cells (purchased from Cell bank of Chinese Academy of Sciences) were scale-up cultured in T-175 cell culture flasks to the logarithmic growth phase, the supernatant of the medium was discarded by centrifugation, and the cell pellet was washed 2 times with PBS. After counting the cells in the previous step, the cell pellet was resuspended with [PBS+2% (w/v) FBS] blocking solution to 4×10⁶ cells/ml, and added to a 96-well FACS reaction plate at 50 μl/well, the supernatant was removed by centrifugation, detection antibodies (initial concentration of […], gradient dilution at 1:5) and an IgG negative control were added at 100 μl/well, the cells were uniformly mixed, and incubated on ice for 1 h. The cells were centrifuged and washed 3 times with a PBS buffer. […] The cells were centrifuged and washed 5 times with a PBS buffer, and FACS (FACS Canto II, purchased from BD Company) was used for detection and result analysis. Data analysis was performed by software (CellQuest) to obtain the mean fluorescence intensity (MFI) of the cells. And then software (GraphPad Prism8) was used for analysis, data fitting, and EC50 value calculation.

[5] = biological target: T1, human CD3 on the cell surface (Jurkat …); test: FACS, expanded human T cells
[6] = biological target: T1, human CD3 on the cell surface (Jurkat …); test: FACS, expanded human T cells; remark: listed apart in the source
Procedure: as §1

[7] = biological target: T3, recombinant human CD3ε-ECD His protein (human, UniProt P07766 23-126); test: SPR (Biacore), antibody captured on Protein A chip
T3 construct: extracellular domain; also called human CD3ε-His; CD3ε antigen protein; not shown: His tag
T3 sequence (P07766 23-126): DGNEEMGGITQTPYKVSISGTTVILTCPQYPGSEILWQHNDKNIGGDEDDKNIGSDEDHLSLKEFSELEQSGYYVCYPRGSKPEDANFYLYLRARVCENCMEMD
Procedure: Sample buffer and running buffer were HBS-EP+(10 mM HEPES, 150 mM NaCl, 3 mM EDTA, 0.05% surfactant P20) (GE Healthcare; BR-1006-69). The flow-through cell was set to 25° C. The sample block was set to 16° C. Both were pretreated with the running buffer. In each cycle, the antibody to be detected was first captured with a Protein A chip, and then a single concentration of CD3ε antigen protein (purchased from Sino Biological, Inc. (China), catalog number: 10977-H08H) was injected. The binding and dissociation processes of the antibody and the antigen protein were recorded, and finally a glycine solution (pH 1.5, GE Healthcare; BR-1003-54) was used to complete chip regeneration. The binding was measured by injecting different concentrations of recombinant human CD3ε-ECD His proteins in a solution for 240 s with a flow rate of 30 μL/min. The concentration started from 200 nM (see the detailed results for the actual concentration in the test) and was diluted at 1:1, making a total of 5 concentrations. The dissociation phase was monitored for up to 600 s and was triggered by switching from sample solution to running buffer. The surface was regenerated by washing with a 10 mM glycine solution (pH 1.5) for 30 s at a flow rate of 30 μL/min. Bulk refractive index difference was corrected by subtracting the response obtained from the goat anti-human Fc surface. Blank injection was also subtracted (=double reference). For calculation of apparent KD and other kinetic parameters, Langmuir 1:1 model was used.

[8] = biological target: T1, human CD3 on the cell surface (Jurkat …); test: FACS, expanded human T cells; remark: listed apart in the source
Procedure: as §1

[9] = biological target: T2, cynomolgus monkey CD3 on the surface of …; test: FACS, expanded monkey T cells; remark: listed apart in the source
Procedure: as §1, with “MOLT4 cells. […]” for “MOLT4 cells.”

[10] = biological target: T1, human CD3 on the cell surface (Jurkat …); test: FACS, Jurkat cells; remark: listed apart in the source
Procedure: as §1

[11] = biological target: T1, human CD3 on the cell surface (Jurkat …); test: cell-based or functional assay

- EC50 [1]: 0.13 nM
- MFI_Max [1]: 7020 MFI
- EC50 [2]: 0.49 nM
- EC50 [3]: 0.27 nM
- MFI_Max [3]: 64700 MFI
- EC50 [4]: 0.45 nM
- EC50 [5]: 2.54 nM
- EC50 [6]: 0.43 nM
- MFI_Max [6]: 43100 MFI
B1: SP34-hIgG1 (antibody)
heavy: not shown
light: QAVVTQESALTTSPGETVTLTCRSSTGAVTTSNYANWVQEKPDHLFTGLIGGTNKRAPGVPARFSGSLIGDKAALTITGAQTEDEAIYFCALWYSNLWVFGGGTKLTVLRTVAAPSVFIFPPSDEQLKSGTASVVCLLNNFYPREAKVQWKVDNALQSGNSQESVTEQDSKDSTYSLSSTLTLSKADYEKHKVYACEVTHQGLSSPVTKSFNRGEC
notes: Positive control

- Kd [7]: 0.959 nM
- koff [7]: 0.000261 s⁻¹
- kon [7]: 272000 M⁻¹ s⁻¹
- EC50 [8]: 4.62 nM
- MFI_Max [8]: 3800 MFI
- EC50 [9]: 2.74 nM
- EC50 [10]: 3.37 nM
- MFI_Max [10]: 2800 MFI
- EC50 (nM), luciferase reporter, Jurkat-Lucia NFAT cells [11]: 11.8 nM
- Maximum response value (RLU) [11]: 8570 RLU
B2: 7-35.6 human-murine chimeric antibody (antibody, human IgG1, lambda, V domains shown)
VH: EVQLVESGGGLVQPKGSLKLSCAASGFTFNTYAMNWVRQAPGKGLEWVGRIRSKINNYATYYGDSVKDRFTISRDDSQSMFYLQMNNLKTEDTAMYYCVIHENYGSISWFAYWGQGTLVTVSA
VL: QAVVTQESTLTTSPGETVTLTCRSSTGAVTTSNYANWVQEKPDHLFTGLIGGTNNRAPGVPARFSGSLIGDKAALTITGAQTEDEAIYFCALWYSNHWVFGGGTKLTVLG
notes: Human IgG1 chimera
